Measured values: patent US20140212976

System: T1, bifurcating NADP Fe-only hydrogenase of C. autoethanogenum
T1 sequence: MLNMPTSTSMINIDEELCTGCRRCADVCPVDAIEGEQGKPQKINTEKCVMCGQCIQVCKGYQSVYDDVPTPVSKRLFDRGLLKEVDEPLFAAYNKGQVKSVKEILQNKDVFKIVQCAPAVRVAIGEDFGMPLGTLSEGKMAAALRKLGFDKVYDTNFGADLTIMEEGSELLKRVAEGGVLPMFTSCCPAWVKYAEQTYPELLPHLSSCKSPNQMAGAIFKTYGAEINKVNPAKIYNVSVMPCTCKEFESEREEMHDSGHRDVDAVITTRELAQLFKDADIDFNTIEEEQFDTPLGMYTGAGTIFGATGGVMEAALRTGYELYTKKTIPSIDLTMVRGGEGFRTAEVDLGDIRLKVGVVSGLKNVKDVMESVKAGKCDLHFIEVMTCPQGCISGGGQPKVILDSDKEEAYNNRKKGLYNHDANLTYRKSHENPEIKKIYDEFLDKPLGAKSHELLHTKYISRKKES

In the case of “bifurcating NADP formate dehydrogenase of C. autoethanogenum”, the “Formate-hydrogen lyase activity (using H2)” value is reported as “a high activity of 2.4 U/mg was detected”.
